Results published in patent US20180155451A1 (published 2018).

T1: FcγRIIa R (extracellular domain, C-terminal His tag) (human, UniProt P12318 34-217)
T1 construct: extracellular domain; Soluble receptor used as analyte in Biacore; also called FcgRIIa R; 2aR; not shown: His tag attached to the C terminus
T1 sequence (looked up): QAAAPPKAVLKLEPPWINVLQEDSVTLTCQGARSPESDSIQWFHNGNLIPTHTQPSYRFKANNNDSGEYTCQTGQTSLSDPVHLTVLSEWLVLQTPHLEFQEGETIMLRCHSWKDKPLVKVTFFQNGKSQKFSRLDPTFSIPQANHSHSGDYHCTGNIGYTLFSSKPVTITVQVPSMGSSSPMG

T2: FcγRIIb (extracellular domain, C-terminal His tag) (human, UniProt P31994 43-217)
T2 construct: extracellular domain; Soluble receptor used as analyte in Biacore; also called FcgRIIb; 2b; not shown: His tag attached to the C terminus
T2 sequence (looked up): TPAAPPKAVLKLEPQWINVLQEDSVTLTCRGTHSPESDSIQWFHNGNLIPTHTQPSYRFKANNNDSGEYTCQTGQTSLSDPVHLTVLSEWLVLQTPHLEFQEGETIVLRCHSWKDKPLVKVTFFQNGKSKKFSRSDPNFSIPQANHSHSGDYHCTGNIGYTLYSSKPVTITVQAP


Tests used:
[1] = target: T1, FcγRIIa R (extracellular domain, …); experiment: SPR (Biacore); He/Con for FcγRIIa R divided by He/Con for FcγRIIb
Experimental: (§1) The heterodimerized antibodies He Abs in which one of the H chains was introduced with an alteration were assayed for their binding activities to each activating FcγR and inhibitory FcγR according to the method described in Example 4. […] The activating FcγRs in FIGS. 26, 27, 28, and 29 are FcγRIa, FcγRIIa (R), FcγRIIa (H), and FcγRIIIa, respectively.
(§2) Analysis of interaction between objective antibody and the FcγR was carried out using Biacore T100 (GE Healthcare). HBS-EP+ (GE Healthcare) was used as the running buffer, and the measurement temperature was set to 25° C. Chips produced by immobilizing the antigen peptide by the amine coupling method to a Series S Sencor Chip CM5 (GE Healthcare), or alternatively, chips produced by allowing preliminarily biotinylated antigen peptides to interact with and immobilize onto a Series S Sensor Chip SA (certified) (GE Healthcare) were used. Antibodies of interest were captured onto an antigen peptide-immobilized chip, and allowed to interact to each FcγR diluted with running buffer. To regenerate and repeatedly use the chip, the antibodies captured on the chip were washed off by reacting 10 mM glycine-HCl, pH 1.5.

[2] = target: T2, FcγRIIb (extracellular domain, …); experiment: SPR (Biacore T100), antibody captured on antigen peptide chip, FcγR as analyte; relative binding amount
Experimental: as §1, §2

[3] = target: T1, FcγRIIa R (extracellular domain, …); experiment: as above
Experimental: as §1, §2

Binder | He_2aR/2b (IIaR/IIb) [1] [ratio] | He/Con_2b (IIb binding) [2] | He/Con_2aR (IIaR binding) [3]
heterodimerized antibody GpH7-A5/GpH7-B3 variant I332_11K/GpL16-k0 (antibody, human IgG1, kappa, Anti-glypican-3 IgG1 with the alteration in only one H chain (the GpH7-B3 chain); also called He Ab) heavy 1: not shown heavy 2: not shown light: DIVMTQSPLSLPVTPGEPASISCQASESLVHSNRNTYLHWYLQKPGQSPQLLIYKVSNRFSGVPDRFSGSGSGTDFTLKISRVEAEDVGVYYCSQNTHVPPTFGQGTKVEIERTVAAPSVFIFPPSDEQLKSGTASVVCLLNNFYPREAKVQWKVDNALQSGNSQESVTEQDSKDSTYSLSSTLTLSKADYEKHKVYACEVTHQGLSSPVTKSFNRGEC | 0.61 | 70.9 % of control (GpH7-A5/GpH7-B3/GpL16-k0 = 100) | 43.1 % of control (GpH7-A5/GpH7-B3/GpL16-k0 = 100)
heterodimerized antibody GpH7-A5/GpH7-B3 variant L328_15Y/GpL16-k0 (antibody, human IgG1, kappa, Anti-glypican-3 IgG1 with the alteration in only one H chain (the GpH7-B3 chain); also called He Ab) heavy 1: not shown heavy 2: not shown light: DIVMTQSPLSLPVTPGEPASISCQASESLVHSNRNTYLHWYLQKPGQSPQLLIYKVSNRFSGVPDRFSGSGSGTDFTLKISRVEAEDVGVYYCSQNTHVPPTFGQGTKVEIERTVAAPSVFIFPPSDEQLKSGTASVVCLLNNFYPREAKVQWKVDNALQSGNSQESVTEQDSKDSTYSLSSTLTLSKADYEKHKVYACEVTHQGLSSPVTKSFNRGEC | 0.7 | 193 % of control (GpH7-A5/GpH7-B3/GpL16-k0 = 100) | 136 % of control (GpH7-A5/GpH7-B3/GpL16-k0 = 100)
heterodimerized antibody GpH7-A5/GpH7-B3 variant L328_18N/GpL16-k0 (antibody, human IgG1, kappa, Anti-glypican-3 IgG1 with the alteration in only one H chain (the GpH7-B3 chain); also called He Ab) heavy 1: not shown heavy 2: not shown light: DIVMTQSPLSLPVTPGEPASISCQASESLVHSNRNTYLHWYLQKPGQSPQLLIYKVSNRFSGVPDRFSGSGSGTDFTLKISRVEAEDVGVYYCSQNTHVPPTFGQGTKVEIERTVAAPSVFIFPPSDEQLKSGTASVVCLLNNFYPREAKVQWKVDNALQSGNSQESVTEQDSKDSTYSLSSTLTLSKADYEKHKVYACEVTHQGLSSPVTKSFNRGEC | 0.73 | 80.8 % of control (GpH7-A5/GpH7-B3/GpL16-k0 = 100) | 59.4 % of control (GpH7-A5/GpH7-B3/GpL16-k0 = 100)
heterodimerized antibody GpH7-A5/GpH7-B3 variant L328_20W/GpL16-k0 (antibody, human IgG1, kappa, Anti-glypican-3 IgG1 with the alteration in only one H chain (the GpH7-B3 chain); also called He Ab) heavy 1: not shown heavy 2: not shown light: DIVMTQSPLSLPVTPGEPASISCQASESLVHSNRNTYLHWYLQKPGQSPQLLIYKVSNRFSGVPDRFSGSGSGTDFTLKISRVEAEDVGVYYCSQNTHVPPTFGQGTKVEIERTVAAPSVFIFPPSDEQLKSGTASVVCLLNNFYPREAKVQWKVDNALQSGNSQESVTEQDSKDSTYSLSSTLTLSKADYEKHKVYACEVTHQGLSSPVTKSFNRGEC | 0.66 | 235 % of control (GpH7-A5/GpH7-B3/GpL16-k0 = 100) | 155 % of control (GpH7-A5/GpH7-B3/GpL16-k0 = 100)
